The text below walks through data of patent US20230357447A1 (JANUX THERAPEUTICS, published 2023).

B1: Peptide-44 (peptide)
peptide: MDWCPRDMWSVCFS
modifications: cysteine pairing not given here; also: biotinylated, site not given here
notes: Synthetic biotinylated peptide loaded on streptavidin biosensors
B2: Peptide-47 (peptide)
peptide: MDWCPRSLWHECFA
modifications: cysteine pairing not given here; also: biotinylated, site not given here
notes: as for B1
B3: Peptide-45 (peptide)
peptide: MDWCPRFMWDECFN
modifications: cysteine pairing not given here; also: biotinylated, site not given here
notes: as for B1
B4: Peptide-46 (peptide)
peptide: MDWCPRHMWNYCFA
modifications: cysteine pairing not given here; also: biotinylated, site not given here
notes: as for B1
B5: Peptide-40 (peptide)
peptide: MDWCPRDLWSECFF
modifications: cysteine pairing not given here; also: biotinylated, site not given here
notes: as for B1
B6: Peptide-42 (peptide)
peptide: MDWCPRDMWDECFA
modifications: cysteine pairing not given here; also: biotinylated, site not given here
notes: as for B1
B7: Peptide-43 (peptide)
peptide: MDWCPRDMWSECFA
modifications: cysteine pairing not given here; also: biotinylated, site not given here
notes: as for B1
B8: Peptide-41 (peptide)
peptide: MDWCPRDLWVHCFA
modifications: cysteine pairing not given here; also: biotinylated, site not given here
notes: as for B1
B9: Peptide-48 (peptide)
peptide: MDWCPRYLWHVCFA
modifications: cysteine pairing not given here; also: biotinylated, site not given here
notes: as for B1
B10: Peptide-38 (peptide)
peptide: MDWCPRDLWHECFA
modifications: cysteine pairing not given here; also: biotinylated, site not given here
notes: as for B1
B11: Peptide-39 (peptide)
peptide: MDWCPRDLWHLCFS
modifications: cysteine pairing not given here; also: biotinylated, site not given here
notes: as for B1
B12: Peptide-31 (peptide)
peptide: MDWCPIDLWNECFF
modifications: cysteine pairing not given here; also: biotinylated, site not given here
notes: as for B1
B13: Peptide-37 (peptide)
peptide: MDWCPRDLWDLCFA
modifications: cysteine pairing not given here; also: biotinylated, site not given here
notes: as for B1
B14: Peptide-33 (peptide)
peptide: MDWCPIYLWSECFN
modifications: cysteine pairing not given here; also: biotinylated, site not given here
notes: as for B1
B15: Peptide-36 (peptide)
peptide: MDWCPLYLWNECFN
modifications: cysteine pairing not given here; also: biotinylated, site not given here
notes: as for B1
B16: Peptide-32 (peptide)
peptide: MDWCPIHLWHVCFN
modifications: cysteine pairing not given here; also: biotinylated, site not given here
notes: as for B1
B17: Peptide-35 (peptide)
peptide: MDWCPLHMWHECFS
modifications: cysteine pairing not given here; also: biotinylated, site not given here
notes: as for B1
B18: Peptide-34 (peptide)
peptide: MNWCPKDIWYLCFN
modifications: cysteine pairing not given here; also: biotinylated, site not given here
notes: as for B1

Ends that are not written are not given here. A value given as a limit tells only on which side of the number the result lay.

For one assay, the target named is T1, Ab-12, anti-PD-L1xCD28 non-masked antibody in Vh format.
T1 construct: also called PDL1xCD28 non-masked (Vh)
In words: competition ELISA: peptide titrated against 5 nM Ab-12; binding of Ab-12 to captured biotinylated CD28 antigen is read.
Take B1: the half-maximal inhibitory concentration (IC50) was found to be 940 nM.

Turning to B2, the concentration for half-maximal inhibition (IC50) is 450 nM. Still for that read-out and setting: with B3 the figure was 370 nM. Same read-out and setting: with B4 the figure was 240 nM; with B5, 250 nM.

For B6, the IC50 is 440 nM. Against the preceding molecule, the IC50 is about 1.8-fold higher. For B7, the IC50 was determined as 240 nM. This IC50 is about 1.8-fold lower than that of the molecule before. Still for that read-out and setting: with B8 the figure was 150 nM; with B9, 790 nM.

The next assay deals with T1, Ab-12, anti-PD-L1xCD28 non-masked …. The assay is described as above. This is another data set of the same source.
B10 yielded an IC50 of 350 nM.

In turn, B11 returned a 50% inhibitory concentration (IC50) of 480 nM. The IC50 values of the last two molecules are within 1.5-fold of each other. On to B12, for which the IC50 worked out at 1770 nM. Consider B13, for which the half-maximal inhibitory concentration (IC50) worked out at 1110 nM. Against the preceding molecule, the IC50 is about 1.6-fold lower. The same measure, in the same setting: the value for B14 was 160 nM. The same measure, in the same setting: with B15 the figure was 400 nM. Same read-out and setting: the value for B16 was 970 nM. In turn, B17 had an IC50 of 1270 nM. Same read-out and setting: the value for B18 was 1410 nM.

The next assay addresses T2, anti-CD28 scFv (SEQ ID NO: 9).
T2 construct: also called Anti-CD28 scFv (VH-linker 1-VL)
In words: competition ELISA: peptide titrated against 2 nM anti-CD28 scFv; binding of the scFv to captured biotinylated CD28 antigen is read; table prints 'IC50 nM' but the axis is Log [Peptide, uM]; no fall of the signal. Background: ELISA stands for enzyme-linked immunosorbent assay.
In turn, SPCGLFQWMEICEF (cysteine pairing not given here; also: biotinylated, site not given here, biotinylated when captured on the plate) [Peptide-3] gave an IC50 greater than 100 nM. LICKSGSILILCAQ (cysteine pairing not given here; also: biotinylated, site not given here, biotinylated when captured on the plate) [Peptide-2] gave an IC50 greater than 100 nM. Molecule YWYCSPSIVRCVLV (cysteine pairing not given here; also: biotinylated, site not given here, biotinylated when captured on the plate) [Peptide-1] yielded an IC50 greater than 100 nM.

In a further assay the target is Anti-CD28 scFv (VH-linker 1-VL). Put plainly: phage ELISA: biotinylated anti-CD28 scFv on neutravidin plate, clonal phage supernatant, anti-M13-HRP; wells pre-incubated with soluble CD28 (competitor).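 Further: before phage addition, wells were preincubated either with soluble CD28 protein in blocking buffer or with blocking buffer only.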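 Further: wells pretreated with soluble CD28 protein in blocking buffer before phage addition, no wash in between, reference wells got blocking buffer only, bound phage detected after washing.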
Regarding MDWCPRFWWHECYA (Clonal phage from the Peptide-9 library) [Phage-451], the “Phage binding ELISA CD28 scFv signal in presence of CD28” value is 0.503. For MDWCPRARWHDCFF (Clonal phage from the Peptide-9 library) [Phage-445], the “Phage binding ELISA CD28 scFv signal in presence of CD28” value worked out at 0.138. Regarding MVDCPLISFDECLA (Clonal phage from the Peptide-9 library) [Phage-449], the “Phage binding ELISA CD28 scFv signal in presence of CD28” value was 0.076.

With MDWCPSDYWYVCFA (Clonal phage from the Peptide-9 library) [Phage-453], the “Phage binding ELISA CD28 scFv signal in presence of CD28” value came out at 0.08.

MDWCPRDWWHMCFN (Clonal phage from the Peptide-9 library) [Phage-452]: the “Phage binding ELISA CD28 scFv signal in presence of CD28” value came out at 0.243.

On to MDWCPRDRWDVCYY (Clonal phage from the Peptide-9 library) [Phage-447], for which the “Phage binding ELISA CD28 scFv signal in presence of CD28” value came to 0.073. In the case of EDWCPTDVWPYCFS (Clonal phage from the Peptide-9 library) [Phage-450], the “Phage binding ELISA CD28 scFv signal in presence of CD28” value turned out to be 0.157.

A further assay has the same target. In words: phage ELISA: biotinylated anti-CD28 scFv on neutravidin plate, clonal phage supernatant, anti-M13-HRP.
Take MDWCPRFWWHECYA (Clonal phage from the Peptide-9 library) [Phage-451]: the “Phage binding ELISA CD28 scFv signal” value amounted to 2.4. On the same count and under the same terms, with MDWCPRARWHDCFF (Clonal phage from the Peptide-9 library) [Phage-445] the figure was 0.497; with MVDCPLISFDECLA (Clonal phage from the Peptide-9 library) [Phage-449], 0.07. As for MDWCPSDYWYVCFA (Clonal phage from the Peptide-9 library) [Phage-453], the “Phage binding ELISA CD28 scFv signal” value turned out to be 0.707. On the same count and under the same terms, the value for MDWCPRDWWHMCFN (Clonal phage from the Peptide-9 library) [Phage-452] was 2.12; that for MDWCPRDRWDVCYY (Clonal phage from the Peptide-9 library) [Phage-447] was 0.074. With EDWCPTDVWPYCFS (Clonal phage from the Peptide-9 library) [Phage-450], the “Phage binding ELISA CD28 scFv signal” value turned out to be 0.711.

For the next assay, the target named is T1, Ab-12, anti-PD-L1xCD28 non-masked …. Put plainly: competition ELISA: peptide titrated against 5 nM Ab-12; binding of Ab-12 to captured biotinylated CD28 antigen is read; table prints 'IC50 nM' but the axis is Log [Peptide, uM]; no fall of the signal.
CFYAEYYDQVYSFC (cysteine pairing not given here; also: biotinylated, site not given here, biotinylated when captured on the plate) [Peptide-18] showed an IC50 greater than 100 nM. Same read-out and setting: with DNCHYIWGFEWQCG (cysteine pairing not given here; also: biotinylated, site not given here, biotinylated when captured on the plate) [Peptide-13] the figure was greater than 100 nM. As to GQHCATSMWRYCMF (cysteine pairing not given here; also: biotinylated, site not given here, biotinylated when captured on the plate) [Peptide-10], the IC50 is greater than 100 nM.

Turning to IDCIMVHMVKPWCF (cysteine pairing not given here; also: biotinylated, site not given here, biotinylated when captured on the plate) [Peptide-14], the concentration for half-maximal inhibition (IC50) was greater than 100 nM. GCFTWSQRTFPFTC (cysteine pairing not given here; also: biotinylated, site not given here, biotinylated when captured on the plate) [Peptide-17] displayed an IC50 greater than 100 nM.

The molecule WICDKSGSIMLCRA (cysteine pairing not given here; also: biotinylated, site not given here, biotinylated when captured on the plate) [Peptide-11] had an IC50 greater than 100 nM. As to NCQPWYWNMFAFGC (cysteine pairing not given here; also: biotinylated, site not given here, biotinylated when captured on the plate) [Peptide-15], the 50% inhibitory concentration (IC50) is greater than 100 nM. Still for that read-out and setting: with NCQPWYWNMIAFGC (cysteine pairing not given here; also: biotinylated, site not given here, biotinylated when captured on the plate) [Peptide-16] the figure was greater than 100 nM.

What is called IC50 is the point on the concentration scale where inhibition reaches its midpoint.
